Laboratory results as given in US11155602B2, “Polypeptides targeting HIV fusion” (priority 2015, dated 2021).

Tested on: NL-Rluc virus
Experiment: Combinectin potency assay: antiviral EC50, NL-Rluc virus in MT-2 cells, luciferase readout
Type: cell-based, HIV-1
Conditions: Anti-N17 Adnectin, Table 3
Procedure: MT-2 cells, HEK 293T cells and the proviral DNA clone of […] were obtained from the NIH AIDS Research and Reference Reagent Program. MT-2 cells were propagated in RPMI 1640 medium supplemented with 10% heat-inactivated fetal bovine serum (FBS), 10 mM HEPES buffer pH 7.55, and 2 mM L-glutamine. HEK 293T cells were propagated in DMEM media supplemented with 10% heat-inactivated FBS, 10 mM HEPES buffer pH 7.55 and 2 mM L-glutamine. Recombinant NL-Rluc virus, in which a section of the nef gene from the proviral clone of NL4-3 was replaced with the Renilla luciferase gene, was constructed at Bristol-Myers Squibb. The replication-competent virus was harvested 3 days after transfection of HEK 293T cells with the modified pNL-Rluc proviral clone. Transfections were performed using Lipofectamine Plus (Invitrogen, Carlsbad, Calif.), according to manufacturer's instruction. Virus was titered in MT-2 cells using luciferase enzyme activity as a biomarker. The NL-Rluc virus used to infect MT-2 cells a multiplicity of 0.01 for 1 hour before adding to the peptides in 96-well plates. Peptides were serially diluted three-fold and 11 concentrations were plated in triplicate. After 4-5 days of incubation, cells were processed and quantitated for virus growth by the amount of expressed luciferase. Luciferase was quantitated using the Dual Luciferase kit from Promega (Madison, Wis.), with modifications to the manufacturer's protocol. The diluted Passive Lysis solution was pre-mixed with the re-suspended Luciferase Assay Reagent and then re-suspended in STOP & GLO® Substrate (2:1:1 ratio). A total of […] of the mixture was added to each aspirated well on assay plates and luciferase activity was measured immediately on a Wallac TriLux (Perkin-Elmer, Waltham, Mass.). The 50% effective concentration (EC50) was calculated by comparing the amount of luciferase produced in the presence of inhibitory peptide compared to wells where no peptide was added.

| Molecule | EC50 [nM] |
| --- | --- |
| 149 (protein, Adnectin) MGHHHHHHGGSVSDVPRDLEVVAATPTSLLISWEYKVHPYRYYRITYGETGGNSPVQEFTVPSVLSTATISGLKPGVDYTITVYAVTYGKDSAPISINYRTEID | 3 |
| 167 (protein, Adnectin) MGHHHHHHGGSVSDVPRDLEVVAATPTSLLISWEYRVNPYRYYRITYGETGGNSPVQEFTVPSVLSTATISGLKPGVDYTITVYAVTYGVQSPPISINYRTEID | 42 |
| 117 (protein, Adnectin) MGHHHHHHGGSVSDVPRDLEVVAATPTSLLISWEYKVHPYRYYRITYGETGGNSPVQEFTVPSVLSTATISGLKPGVDYTITVYAVTYGDDSAPISINYRTEID | 42 |
| 166 (protein, Adnectin) MGHHHHHHGGSVSDVPRDLEVVAATPTSLLISWKYNLHPYRYYRITYGETGGNSPVQEFTVPSVLSTATISGLKPGVDYTITVYAVTYGIISEPISINYRTEID | 50 |
| 153 (protein, Adnectin) MGHHHHHHGGSVSDVPRDLEVVAATPTSLLISWEYKVHPYRYYRITYGETGGNSPVQEFTVPSVLSTAQISGLKPGVDYTITVYAVTYGDDSAPISINYRTEID | 8 |
| 168 (protein, Adnectin) MGHHHHHHGGSVSDVPRDLEVVAATPTSLLISWEYKVNAYRYYRITYGETGGNSPVQEFTVPSVLSTATISGLKPGVDYTITVYAVTYGVLSPPISINYRTEID | 42 |
| 159 (protein, Adnectin) MGHHHHHHGGSVSDVPRDLEVVAATPTSLLISWEYKVHPYRYYRITYGETGGNSPVQEFTVPSVLSTATISGLKPGVDYTITVYAVTYGDDSAPISIPYRTPGG | 23 |
| 163 (protein, Adnectin) MGHHHHHHGGSVSDVPRYLEVVAATPTSLLISWQYKVHPYRWYRITYGETGGNSPVQEFTVPSVLSTATISGLKPGVDYTITVYAVTYGVNSIPISINYRTEID | 35 |
| 162 (protein, Adnectin) MGHHHHHHGGSVSDVPRDLEVVAATPTSLLISWEYKVHPYRYYRITYGETGGNSPVQEFTVPSVLSSAQISGLKPGVDYTITVYAVTYGDDSAPISINYRTEID | 35 |
| 161 (protein, Adnectin) MGHHHHHHGGSVSDVPRDLEVVAATPTSLLISWEYKVHPYRYYRITYGETGGNSPVQEFTVPSVLSSAEISGLKPGVDYTITVYAVTYGDDSAPISINYRTEID | 13 |
| 165 (protein, Adnectin) MGHHHHHHGGSVSDVPRDLEVVAATPTSLLISWEYKVNPYRYYRITYGETGGNSPVQEFTVPSVLSTATISGLKPGVDYTITVYAVTYGVHSSPISINYRTEID | 42 |
| 164 (protein, Adnectin) MGHHHHHHGGSVSDVPRDLEVVAATPTSLLISWKYQVHAYRYYRITYGETGGNSPVQEFTVPSVLSTATISGLKPGVDYTITVYAVTYGVYSAPISINYRTEID | 35 |
| 141 (protein, Adnectin) MGVSDVPRDLEVVAATPTSLLISWQYKVHPYRYYRITYGETGGNSPVQEFTVPSVLSTATISGLKPGVDYTITVYAVTYGIQSPPISINYRTEIDKPSQHHHHHH | 3 |
| 144 (protein, Adnectin) MGVSDVPRDLEVVAATPTSLLISWQYKVHPYRYYRITYGETGGNSPVQEFTVPSVLSTATISGLKPGVDYTITVYAVTYGVESSPISINYRTEIDKPSQHHHHHH | 20 |
| 150 (protein, Adnectin) MGVSDVPRDLEVVAATPTSLLISWEYNVNPYRYYRITYGETGGNSPVQEFTVPSVLSTATISGLKPGVDYTITVYAVTYGVESSPISINYRTEIDKPSQHHHHHH | 18 |
| 154 (protein, Adnectin) MGVSDVPRDLEVVAATPTSLLISWEYNVNPYRYYRITYGETGGNSPVQEFTVPSVLSTATISGLKPGVDYTITVYAVTYGVNSLPISINYRTEIDKPSQHHHHHH | 8 |

| Molecule | EC50 [nM] |
| --- | --- |
| 155 (protein, Adnectin) MGVSDVPRDLEVVAATPTSLLISWQYKVHPYRYYRITYGETGGNSPVQEFTVPSVLSTATISGLKPGVDYTITVYAVTHGVHSAPISINYRTEIDKPSQHHHHHH | 9 |
| 118 (protein, Adnectin) MGVSDVPRDLEVVAATPTSLLISWKYKVHPYRYYRITYGETGGNSPVQEFTVPSVLSTATISGLKPGVDYTITVYAVTYGVNSLPISINYRTEIDKPSQHHHHHH | 28 |
| 146 (protein, Adnectin) MGVSDVPRDLEVVAATPTSLLISWEYKVHPYRYYRITYGETGGNSPVQEFTVPSVLSTATISGLKPGVDYTITVYAVTYGIDSPPISINYRTEIDKPSQHHHHHH | 11 |
| 143 (protein, Adnectin) MGVSDVPRDLEVVAATPTSLLISWEYNVNPYRYYRITYGETGGNSPVQEFTVPSVLSTATISGLKPGVDYTITVYAVTYGIESSPISINYRTEIDKPSQHHHHHH | 20 |
| 160 (protein, Adnectin) MGVSDVPRDLEVVAATPTSLLISWEYKVDPYRYYRITYGETGGNSPVQEFTVPSVLSTATISGLKPGVDYTITVYAVTYGVESSPISINYRTEIDKPSQHHHHHH | 58 |
| 148 (protein, Adnectin) MGVSDVPRDLEVVAATPTSLLISWEYNVNPYRYYRITYGETGGNSPVQEFTVPSVLSTATISGLKPGVDYTITVYAVTYGIDSPPISINYRTEIDKPSQHHHHHH | 14 |
| 142 (protein, Adnectin) MGVSDVPRDLEVVAATPTSLLISWRYRVHPYRYYRITYGETGGNSPVQEFTVPSVLSTATISGLKPGVDYTITVYAVTDGVQSSPISINYRTEIDKPSQHHHHHH | 55 |
| 151 (protein, Adnectin) MGVSDVPRDLEVVAATPTSLLISWEYKVHPYRYYRITYGETGGNSPVQEFTVPSVLSTATISGLKPGVDYTITVYAVTYGIDSSPISINYRTEIDKPSQHHHHHH | 11 |
| 147 (protein, Adnectin) MGVSDVPRDLEVVAATPTSLLISWEYKVHPYRYYRITYGETGGNSPVQEFTVPSVLSTATISGLKPGVDYTITVYAVTYGVDSDPISINYRTEIDKPSQHHHHHH | 28 |
| 152 (protein, Adnectin) MGVSDVPRDLEVVAATPTSLLISWEYNVNPYRYYRITYGETGGNSPVQEFTVPSVLSTATISGLKPGVDYTITVYAVTYGVQSDPISINYRTEIDKPSQHHHHHH | 20 |
| 157 (protein, Adnectin) MGVSDVPRDLEVVAATPTSLLISWQYKVHPYRYYRITYGETGGNSPVQEFTVPSVLSTATISGLKPGVDYTITVYAVTYGVNSIPISINYRTEIDKPSQHHHHHH | 43 |
| 145 (protein, Adnectin) MGVSDVPRDLEVVAATPTSLLISWEYKVHPYRYYRITYGETGGNSPVQEFTVPSVLSTATISGLKPGVDYTITVYAVTYGVNSLPISINYRTEIDKPSQHHHHHH | 11 |
| 156 (protein, Adnectin) MGVSDVPRDLEVVAATPTSLLISWEYKVNPWRYYRITYGETGGNSPVQEFTVPSVLSTATISGLKPGVDYTITVYAVTYGIESSPISINYRTEIDKPSQHHHHHH | 43 |
| 158 (protein, Adnectin) MGVSDVPRDLEVVAATPTSLLISWEYKVHYDRYYRITYGETGGNSPVQEFTVPSVLSTATISGLKPGVDYTITVYAVTYGIQSPPISINYRTEIDKPSQHHHHHH | 85 |
| 116 (protein, Adnectin) MASTSGVSDVPRDLEVVAATPTSLLISWDAPAVTVEQYYIAYYVEGEPSSYQYFRVPGSKSTATISGLKPGVLYHIYVNAVTGSGLRPEFSLPIRIKYRTEGSGSHHHHHH | 50 |
